Data reported in patent publication US20220119534A1 (DRAGONFLY THERAPEUTICS, published 2022).
Where “and” joins values, the source holds several entries; their conditions need not be identical. Identical values can stand only once.

Assays:
[1] = biological target: T1, Human CLEC12A-His (recombinant, K244 WT) (human, UniProt Q5QGZ9 65-265); test: SPR, untreated CLEC12A, two-state fit (ka1)
T1 construct: Made in house (Dragonfly Tx); also called hCLEC12A; hCLEC12A-His; not shown: His tag
T1 sequence: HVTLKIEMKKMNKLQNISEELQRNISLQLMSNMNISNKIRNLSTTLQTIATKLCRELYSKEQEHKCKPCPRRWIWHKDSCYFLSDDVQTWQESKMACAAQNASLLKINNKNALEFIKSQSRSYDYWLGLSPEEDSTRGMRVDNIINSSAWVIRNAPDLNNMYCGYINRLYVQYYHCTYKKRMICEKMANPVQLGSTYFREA

[2] = biological target: T1, Human CLEC12A-His (recombinant, K244 WT); test: SPR 37C, AB0089 captured on anti-hFc, two-state fit (ka1)
Description: (§1) Briefly, human Fc specific antibodies were covalently immobilized at a density ˜8000-10000 resonance units (RU) on carboxy methyl dextran matrix of a CM5 biosensor chip via amine-coupling chemistry to create an anti-hFc IgG chip. […] Association was monitored for 300 seconds and dissociation was monitored for 600 seconds. Surfaces were regenerated between cycles with three pulses of 10 mM glycine-HCl, pH 1.7 injected for 20 seconds at 100 μl/min. HBS-EP+ (1×) with 0.1 mg/ml BSA was used as running buffer throughout the experiment. Experiments were performed at physiological temperature of 37° C. To obtain kinetic rate constants and overall binding affinity, double-referenced data were fit to a two-state kinetic model using Biacore 8K Insight Evaluation software (Cytiva).

[3] = biological target: T2, Human CD32a H131 (FcγRIIa H131) (human, UniProt P12318 36-218, limits assumed, biotinylated); test: SPR 25C, average
T2 construct: Bought recombinant receptor; also called hFcγRIIa H131; FcgRIIa H131
T2 sequence (looked up): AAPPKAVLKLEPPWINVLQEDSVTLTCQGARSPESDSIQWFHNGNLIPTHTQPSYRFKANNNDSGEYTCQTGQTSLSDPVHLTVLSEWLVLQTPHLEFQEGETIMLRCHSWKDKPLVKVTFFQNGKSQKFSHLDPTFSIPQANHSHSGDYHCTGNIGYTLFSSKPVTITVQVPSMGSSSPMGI
Description: (§2) Human and cynomolgus CD64, high and low affinity alleles of CD16a (V158 and F158, respectively), two alleles of CD32a (H131 and R131), CD16b, CD32b and cynomolgus CD16 were captured via biotin on a primed (according to the manufacturers instruction) Biacore chip. […] Due to irreversibility of streptavidin-biotin interaction, the capture step for all receptors except FcγRI (CD64) was performed just once prior to the start of the binding experiment. hCD64 and cyno CD64 capture on the CAP chip surface was performed during each cycle in accordance with the manufacturer's instructions for the Biotin CAPture kit.

[4] = biological target: T3, Human CD32a R131 (FcγRIIa R131) (human, UniProt P12318 36-218, limits assumed, biotinylated); test: SPR 25C, average
T3 construct: Bought recombinant receptor; also called hFcγRIIa R131; FcgRIIa R131
T3 sequence (looked up): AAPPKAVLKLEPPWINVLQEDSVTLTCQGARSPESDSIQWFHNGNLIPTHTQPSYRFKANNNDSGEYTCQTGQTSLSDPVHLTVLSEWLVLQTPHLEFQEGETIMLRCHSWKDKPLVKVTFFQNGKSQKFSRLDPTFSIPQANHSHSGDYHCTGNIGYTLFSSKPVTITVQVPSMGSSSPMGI
Description: as §2

[5] = biological target: T1, Human CLEC12A-His (recombinant, K244 WT); test: SPR, two-state fit (ka1); fully purified protein after low pH hold
Description: as §1

B1: AB0089 TriNKET (bispecific antibody, human IgG1, kappa)
chain: QLQLQESGPGLVKPSETLSLTCTVSGFSLTNYGLHWIRQPPGKCLEWIGVIWVGGATDYNPSLKSRVTISVDTSKNQFSLKLSSVQAADTAVYYCAKGDYGDTLDYWGQGTLVTVSSGGGGSGGGGSGGGGSGGGGSDIQMTQSPSSLSASVGDRVTITCHASQNINFWLSWYQQKPGKAPKLLIYEASNLHTGVPSRFSGSGSGTDFTLTISSLQPEDFATYYCQQSHSYPLTFGCGTKLEIKGSDKTHTCPPCPAPELLGGPSVFLFPPKPKDTLMISRTPEVTCVVVDVSHEDPEVKFNWYVDGVEVHNAKTKPREEQYNSTYRVVSVLTVLHQDWLNGKEYKCKVSNKALPAPIEKTISKAKGQPREPRVYTLPPCRDELTKNQVSLTCLVKGFYPSDIAVEWESNGQPENNYKTTPPVLVSDGSFTLYSKLTVDKSRWQQGNVFSCSVMHEALHNHYTQKSLSLSPG
heavy: EVQLVESGGGLVKPGGSLRLSCAASGFTFSSYSMNWVRQAPGKGLEWVSSISSSSSYIYYADSVKGRFTISRDNAKNSLYLQMNSLRAEDTAVYYCARGAPIGAAAGWFDPWGQGTLVTVSSASTKGPSVFPLAPSSKSTSGGTAALGCLVKDYFPEPVTVSWNSGALTSGVHTFPAVLQSSGLYSLSSVVTVPSSSLGTQTYICNVNHKPSNTKVDKKVEPKSCDKTHTCPPCPAPELLGGPSVFLFPPKPKDTLMISRTPEVTCVVVDVSHEDPEVKFNWYVDGVEVHNAKTKPREEQYNSTYRVVSVLTVLHQDWLNGKEYKCKVSNKALPAPIEKTISKAKGQPREPQVCTLPPSRDELTENQVSLTCLVKGFYPSDIAVEWESNGQPENNYKTTPPVLDSDGSFFLYSWLTVDKSRWQQGNVFSCSVMHEALHNHYTQKSLSLSPG
light: DIQMTQSPSSVSASVGDRVTITCRASQGISSWLAWYQQKPGKAPKLLIYAASSLQSGVPSRFSGSGSGTDFTLTISSLQPEDFATYYCQQGVSFPRTFGGGTKVEIKRTVAAPSVFIFPPSDEQLKSGTASVVCLLNNFYPREAKVQWKVDNALQSGNSQESVTEQDSKDSTYSLSSTLTLSKADYEKHKVYACEVTHQGLSSPVTKSFNRGEC
notes: F3' format heterodimer of three chains; human IgG1 Fc with EW-RVT and Y349C/S354C mutations; also called AB0089 Lot AB0089-002; CLEC12A TriNKET AB0089
Q: What does the source list for B1?
A: kon [1]: 1.63e+07 M⁻¹ s⁻¹; kon [2]: 1.1e+07 M⁻¹ s⁻¹ (2×) and 1e+07 M⁻¹ s⁻¹ (2×); Kd [3]: 0.9 µM; Kd [4]: 1.25 µM; kon [5]: 1.02e+07 M⁻¹ s⁻¹
